Test results taken from patent US12331110B2, “Monoclonal antibodies against endotrophin and the use thereof” (THE BOARD OF REGENTS OF THE UNIVERSITY OF TEXAS SYSTEM, priority 2018, dated 2025).
Substitutions are numbered along the chain they refer to. One block for each molecule: values may come before it.

Legend:
[1] = system: ETP transfected MCF7 cells; assay: ETP transfected MCF7 tumor growth in nude mice; format: in vivo; settings: 2.5 mg/kg cisplatin once a week
Procedure: FIGS. 5A-C. Antibody effects on ETP-MCF7 cells in vivo. (FIG. 5A) ETP transfected MCF7 cells (2×10^6 cells) were implanted into nude mice. An estradiol pellet (0.72 mg) was implanted into nude mice. Then (i) 20 mg/kg ETPmAb4, (ii) 10 mg/kg ETPmAb4 with 10 mg/kg control IgG, (iii) 5 mg/kg ETPmAb4 with 15 mg/kg control IgG, (iv) 2 mg/kg ETPmAb4 with 18 mg/kg control IgG, and (v) 20 mg/kg control IgG (twice a week) were injected after 10-days implantation for 5-weeks. Tumor volume was determined by caliper measurement. Data was represented as mean±SD (n=5/group), and *** p<0.0001 by ANOVA followed by Newman-Keuls multiple comparison test. (FIG. 5B) Total RNA was prepared from tumor tissues from ETP transfected MCF7, ETPmAb4 treatment mice. The EMT markers genes Twist, Snail, Cdh2 and Cdh 1 were determined by qRT-PCR, then normalized to GAPDH. E-CAD immunofluorescence staining for tumor tissues from ETP transfected MCF7 and ETPmAb4 treatment tumor. (FIG. 5C) MCF7 and ETP transfected MCF7 cells (2×10^6 cells) were implanted into nude mice. An estradiol pellet (0.72 mg) was implanted into nude mice. Then 20 mg/kg of antibody ETPmAb4 (twice a week), and 2.5 mg/kg of cisplatin (once a week) were injected after 10-days implantation for 6-weeks. Tumor volume was determined by caliper measurement. Data was represented as mean±SD (n=5/group), and *** p<0.0001 by ANOVA followed by Newman-Keuls multiple comparison test.
Animal experiments. NU/NU nude female mice were purchased from Charles River (Crl: NU-Foxnlnu; Strain Code 088 (Homozygous)). Breast cancer cells (2×10^6 cells) were implanted by intraductal injection. All cell lines were mixed on ice with 1×PBS and Matrigel. Then 100 μL of mixture was injected into mice. Tumors were measured twice a week, beginning 10 days after injection, and tumor volume was calculated by length×(width) 2/2 (mm^3).
(§1) Analysis of Tumor Progression. Tumor onset was monitored twice weekly by palpation. Tumor sizes were measured using a digital caliper twice weekly and the volumes were calculated as length× width2)/2. Inguinal tumors were weighted to determine tumor burden. Animals were sacrificed when the tumor burden visibly affected the host, or when the tumors reached the IACUC pre-determined limit of 20 mm along one axis.
As a next step, whether the anti-endotrophin antibodies effectively curb the aggressive tumor growth observed in endotrophin overexpressing MCF-7 cells was examined. To boost the growth rate of the tumor cells, these assays were performed in the presence of estradiol pellets. Cells (2×10^6 cells) were injected into nude mice and their tumor growth was monitored over time, based on a twice weekly injection of either a control monoclonal preparation, or ETPmAb4; in all cases, a total of 20 mg/kg of antibody was used. The dose dependence was tested by either injecting 20 mg/kg of control antibody, 20 mg/kg of ETPmAb4, or a mixture of the two with decreasing levels of control antibody mixed with increasing levels of ETPmAb4.
To test this, MCF7 cells were used with or without endotrophin overexpression, and the cells were transplanted into nude mice, in the presence of estradiol pellets (FIG. 5C). […] As expected, MCF7 cells harboring an excess in endotrophin grew very aggressively (FIG. 5C; red line).

MDA-MB-231 cells = assay: MDA-MB-231 tumor growth in nude mice; format: in vivo; settings: 2.5 mg/kg cisplatin
Procedure: FIGS. 6A-D. The antibody effects on MDA-MB-231 cells in vivo. (FIG. 6A) MDA-MB-231 cells (2×10^6 cells) were implanted into nude mice. Then 2.5 mg/kg of cisplatin and 20 mg/kg of ETPmAb4 antibody (twice a week) were injected after 10-days implantation for 5-weeks. Tumor volume was determined by caliper measurement. The insert reflects a simplified analysis of control antibody versus ETPmAb4 with associated statistics. (FIG. 6B) MDA-MB-231 cells (2×10^6 cells) were implanted into nude mice. Treatment was started when the tumor volume was over 30 mm^3. At that point, 2.5 mg/kg of cisplatin and 20 mg/kg of ETPmAb4 antibody (twice weekly) were injected for 5-weeks. Tumor volumes were determined by caliper measurements. The insert reflects a simplified analysis of control antibody versus ETPmAb4 with associated statistics. (FIG. 6C) SKOV3 cells (2×10^6 cells) were implanted into nude mice. Then 2.5 mg/kg of cisplatin and 20 mg/kg of ETPmAb4 antibody (twice weekly) were injected 10-days after implantation for 5-weeks. Tumor volumes were determined by caliper measurements. The insert reflects a simplified analysis of control antibody versus ETPmAb4 with associated statistics. (FIG. 6D) MDA-MB-231 cells (2×10^6 cells) were implanted into nude mice. Then 2.5 mg/kg of cisplatin, 20 mg/kg of ETPmAb4 antibody and 20 mg/kg of humanized ETPmAb4 antibody (twice a week) were injected after 10-days implantation for 5-weeks. Tumor volume was determined by caliper measurement. […]
(§2) Animal experiments. […] Tumors were measured twice a week, beginning 10 days after injection, and tumor volume was calculated by length×(width) 2/2 (mm^3).
as §1, with “Inguinal tumors were weighted to determine tumor burden.” left out, “axis. […]” for “axis.”
After humanization, the binding affinity of hETPmAb4 to endotrophin was measured in Octet RED96. […]

MCF7 cells = assay: MCF7 tumor growth in nude mice; format: in vivo; settings: 2.5 mg/kg cisplatin once a week, estradiol pellet
Procedure: FIGS. 5A-C. Antibody effects on ETP-MCF7 cells in vivo. (FIG. 5A) ETP transfected MCF7 cells (2×10^6 cells) were implanted into nude mice. An estradiol pellet (0.72 mg) was implanted into nude mice. Then (i) 20 mg/kg ETPmAb4, (ii) 10 mg/kg ETPmAb4 with 10 mg/kg control IgG, (iii) 5 mg/kg ETPmAb4 with 15 mg/kg control IgG, (iv) 2 mg/kg ETPmAb4 with 18 mg/kg control IgG, and (v) 20 mg/kg control IgG (twice a week) were injected after 10-days implantation for 5-weeks. Tumor volume was determined by caliper measurement. Data was represented as mean±SD (n=5/group), and *** p<0.0001 by ANOVA followed by Newman-Keuls multiple comparison test. (FIG. 5B) Total RNA was prepared from tumor tissues from ETP transfected MCF7, ETPmAb4 treatment mice. The EMT markers genes Twist, Snail, Cdh2 and Cdh 1 were determined by qRT-PCR, then normalized to GAPDH. […] Tumor volume was determined by caliper measurement. […]
as §2
as §1, with “Inguinal tumors were weighted to determine tumor burden.” left out, “axis. […]” for “axis.”

[2] = target: T1, recombinant endotrophin protein (Homo sapiens, UniProt P12111); assay: Affinity measurement with BLI (Octet RED96); settings: Octet (96-Red), 1:1 binding model
T1 construct: the latter consisting of 77 amino acids at the carboxy-terminal of the COL6α3 chain; CD33 signal peptide (N, cleaved yes); His-tag with EK-cleavage site (N, cleaved yes); purchased Sino Biological, Beijing, China; host or cells: HEK293
T1 sequence (P12111 3101-3177): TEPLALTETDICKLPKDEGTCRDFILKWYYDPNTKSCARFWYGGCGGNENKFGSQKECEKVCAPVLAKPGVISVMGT
Procedure: FIGS. 12A-B. Kinetic sensorgrams for ETP-mAb4 (FIG. 12A) and each of the humanized antibodies (FIG. 12B). […]
For antibody affinity measurement, antibody (30 μg/mL) was loaded onto the protein A biosensors for 4 min. Following a short baseline in kinetics buffer, the loaded biosensors were exposed to a series of recombinant endotrophin protein at 0.1-200 nM and background subtraction was used to correct for sensor drifting. All experiments were performed with shaking at 1,000 rpm. Background wavelength shifts were measured from reference biosensors that were loaded only with antibody. Kinetic sensorgrams for each antibody are shown in FIGS. 12A&B. ForteBio's data analysis software was used to fit the data to a 1:1 binding model to extract an association rate and dissociation rate. The Kd was calculated using the ratio of koff/kon and the estimated values of […] for endotrophin ETP-mAb4 and 4 humanized ETP-hMab4 antibodies are listed in Table 4.

Molecule: N.N.[Cl][Pt][Cl] [cisplatinum, cisplatin, reference compound]
lesion growth, cisplatinum alone or with control antibody [1]: moderately reduced
lesion growth, cisplatinum alone or with control antibodies (MDA-MB-231 cells): reduced
lesion growth, cisplatinum (MCF7 cells): significantly curbed lesion growth

B3: ETP-mAb4.1: humanized IgG1 version of ETPmAb4; VH SEQ ID NO: 157, VL SEQ ID NO: 158 (antibody, V domains shown)
VH: EVQLLESGGGLVQPGGSLRLSCAASGFSFSSGYYICWVRQAPGKGLEWIACIYGGNNNPYYANWVNGRFTISRDNSKNTLYLQMNSLRAEDTAVYYCARKDINIGGAYELWGQGTLVTVSS
VL: DIQMTQSPSSLSASVGDRVTITCQASQSISSSYLSWYQQKPGKAPKLLIYKASTLASGVPSRFSGSGSGTDFTLTISSLQPEDFATYYCQYSDWANSYGNAFGGGTKVEIK
modifications: human IgG1 constant regions
kdis [2]: 2.35 E−04 1/s
kon [2]: 1.16 E+05 1/Ms

B4: ETP-mAb4.2: humanized IgG1 version of ETPmAb4; VH SEQ ID NO: 159, VL SEQ ID NO: 158 (antibody, V domains shown)
VH: B3 VH with N57S
VL: B3 VL
modifications: human IgG1 constant regions
kdis [2]: 3.05 E−04 1/s
kon [2]: 1.23 E+05 1/Ms

The next lines start with the values.

kdis [2]: 3.28 E−04 1/s
kon [2]: 1.30 E+05 1/Ms
B1: ETP-mAb4.4: humanized IgG1 version of ETPmAb4; VH SEQ ID NO: 161, VL SEQ ID NO: 158 (antibody, V domains shown)
VH: B3 VH with I71T
VL: B3 VL
modifications: human IgG1 constant regions

kdis [2]: 2.23 E−04 1/s
kon [2]: 1.16 E+05 1/Ms
B2: ETP-mAb4.5: humanized IgG1 version of ETPmAb4; VH SEQ ID NO: 162, VL SEQ ID NO: 158 (antibody, V domains shown)
VH: B3 VH with S28T, N57S
VL: B3 VL
modifications: human IgG1 constant regions
